The NTF2 design screens of Basanta et al. (2020)

Experiment: protease stability score; higher = more stable; yeast display proteolysis, trypsin and chymotrypsin;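 further: relative to predicted unfolded state with 0 unfolded-like and 1 meaning tenfold more protease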

| Sequence | protease stability score |
| --- | --- |
| DENTRLRREAFRIERKTWKTGDERLLEENADPDAKYDVDGKDLHGWREVVHFLDDFLKRFGFDHFEVKEIRVQGEKIIIDGRVEVNGRVFETRVIFTKFDGQWSVQSLQMR | 0.444 |
| DEQEDRDMKKMYKNLQEGDDQRVADMADPNARWRVGDKTYHGKDSIRHWAKEVHDRMHFRIQSITVQNENGKVKVEIKWVTDENGKPVDQTVQVKAELHNGHIVDIDITTQS | 0.098 |
| DEQEEDDREAVKHALEVWETGDERVLWELFDPHVRIIVGDKHVHGREHFLRLTHELKRKVKGIRFDIRHVNLYDGRIEMDTDLEVDGRKHKTTIIAKKVNGRWILESIEIR | 1.45 |
| DEQEEFSHRIMRLLIDLWHTGDWTLIEQYLDPNVRFEVGDKRHHGRESAVKALLELHRRLGVKHFDVKDKDQQGEKLVVVLEDRAENHHMEHELIVVKIDGRWTNHSIISRIH | 1.01 |
| DEQEEHLHEMVRRFLHHFLTGDWKTLHRMFDPNARYHINGQDHVGREEINRFWREHWEHARIHDLRIKSVELFENRSHIIGHLDGNIDGKEVRTDVEIILVIVNGRVRYIEVRQH | 1.52 |
| DEQEEHVEKLVHLLLRRFKTGDEEFWRRLADPRTRLHVGDKHHHGRETFMKVFRHLIEDLGIDHRIEKHFEVINGVLHIHQIIVVDGQEFELRIHVFVVDGKVKSIDVSIHTR | 0.896 |
| DEQEEKLERMYKLWLELHRTGDEEILTELIDPTARLEVGDKSFHGREILIEWFHRELKRIDHKEVRERHIEIQGEWLHAEIEVIIIVNGREIRITTELIIVTINGKIKSINIKIR | 2.23 |
| DEQEELSQLLAEIVIELTKTGDEHTLERLMDPHVRANINGVELHGRKKVREFLEEWLRRVKNVRLHIDDRTVQGEKIIVDGTWNVGDKSFRIEFIVIIINGRHTSFNVLDI | 1.51 |
| DEQEESSRIIHKLIEHVAETGDWREWRKLLDPNTRLDVNGKEFHGWEKLLEHLEEHLDLLGVTKFTLRIQIRSMETQGNYVFIVGITHIHQGDKEIHRFTELIVLKINGKWLMKEIRFR | 1.37 |
| DEQEESTRIAMELVLRSLKTGDERTVSELVDPNVRYEQGDKEYHGWESASEVVRRLGVDHFIIHDIKIQGNKLHLHGELVVGDYTLKYHIIVLKVNGRWQITRMHTI | 1.2 |
| DEQEHVAERIVNDLNHSMETGDEHRIRELVDPHVRVIIGDKELHGMEEFIRWLREFGVERIRVRLKRFSFVGNKIRLDTVMNINGQNVDTKLIIEKVDGRWLLRSIHVD | 2.18 |
| DEQEKEAKRVVEEILEILLTGDFESFLRNADPNVRIIIGDKDYWGREHTKRLLTDWRREMRVKHIDVRDIEVQGNKVKLHLESDLEINGRRTRTEMEIIVVTFNGRFESLEIRTV | 1.75 |
| DEQEKELEEFLKLLLYAIWTGDEDTITELADPNVRMHIGDKLNHGWEILSDRLTEIRSDIHDFKLRHIETIGNKMTLFGDLNGQINVGDKEKRTIIHMILHVHKIDGRWLLTHIHFD | 0.265 |
| DEQEKFSKEMARLFIELRLTGDWETFTHLADPDVLWEIHVDGQSERNIGWESVRHAMEKERHELRIEHIHIRDVKIQGNKIHINTEVVGQFNGRRFIVDSRIHIHIVNGRIKDVTIEIE | 1.16 |
| DEQEKHLKKISEDLLRIWLTGDEDTFREMADPDMRFIDEDHELHGREELIRMMREFWHKFKNARIEIHHVEVIGEYNNVDIRLSVDGRVVDVKLHFLIVNGRLKKVEVRER | 2.07 |
| DEQEQHAFKFFEHHTEILKTGDWEEVRKNLDPHVRLHVNGVEMHGMEHATELALKEDTEIRSELRLEDVDVQGDKVRFDIRLIYHIGDKTIVHKIDLVMIKINGRWLVHSIHVE | 0.36 |
| DEQERAQEALRRFLRVFQEGDPDRARQQADKDVQMVVGDKEYEGREQVSRAIESLRERVDEFHITVRRITVSGNRVVVDAKLKLNINGKEDDVTLKLVIDVSGDKISIKRVEVR | 1.16 |
| DEQERAYELALRTIEHDLRTGDEKSLQENADPNTRLLVGDKELVGWELFIKLMREIRIRHIEVRHMEVQGNKLIFDGKVDGEIGDKRVEYETEIILEKVDGQWRIKEKRLH | 0.862 |

| Sequence | protease stability score |
| --- | --- |
| DEQERHAEEFVREHMNAWVTGDWEMLIRQLDPNTRFIQGDKRHHGREALHYMRERVDHIKSVHIDRVDVYNGRVIIDIELIGLIDGRDVTFHVHIITKKIDGRWIVHELRHE | 0.82 |
| DEQERIIRRLTELFTRAEKTGDWKNFLELADPHVRLKYGEFDHIGREEFYTLKEHVDKKLGIEFRDTDIKDLVVVGDKAVSHLTNDGEVNGVRHELSLNVVISKFNGRWELEQVEIK | 0.897 |
| DEQERLMRKLAEIIVEAIITGDWRSLAELFDPDVRIDINGRELIGRETWVTWLQEEYKRFKNQRIELHIRDVDVQGDYSHIDGHSRIVIGDFVFTTEIHTEIVIIDGRVHSMHHHVK | 1.18 |
| DEQERRSRELLHLWLELFETGDEDNMQEFLDPNVRLIIIQGDNQVNHHGWENMVKIAKFYKNMQIKVHDVEFQGDKVIMDTRLLVDGRLRHTTVILDIVNGVIKHVEIRYS | 1.69 |
| DEQETHNNNILERLIRILHTGDEHIYEHLFDPHARLHIGDKRFHGREELSRWLRRLGVRWEHFIERDVEVQGEKLRIEGERTVHIDGVRHHHRTEIIIIVIDGKIKSYEERHV | 0.572 |
| DEQFKEQKDMHRELEEALLTGDEESWHRLMDPNTRLFFEGRIHHGREEVVRAIREIRRRFGFKVIKRFEVEHVEIIDGRVDIRTIIRGEVNGRDSSLDTRLILNKIDGKWVIQSIIIE | 2.2 |
| DEQHEEAERAMEHMNRIEHTGDEDDLDRLMDPRTKIEVGDKELHGRHLWRVFLREARIHDSKIRDIRVIGDKVTFHTEVRITINGVEVRVHVIMIIEKVDGKWLVHRVIIR | 1.35 |
| DEQHKEVRTFLEIHINMRATGNEEILFHQVDPHVRLIINGRQFHGWEEYEKFAHTSARFFKNVQIRIHRVEVYIQGDKIHVNMHVWYNVNGQTMEVDLHSEMIKVDGQWRLDSEIISIR | 1.33 |
| DEQKHVFNNVLRWLLESLETGDEEDLERLMDPNTRLHINGQDLHGREALRKHIEHRLKSLGVDHVHLRVHDVHIIDGKIEVDSELDLKIGDKEIRMKVRLIALKINGRWLVKHFDVT | 1.29 |
| DEQKNWAKIMLELLEHAWRTGDEHTLQELADPNTRLNIGDKDIIGWDLILTVLIEIRMSFSYRLEEVHTFENHVVLRTRLIRVLHFDGKSTEFVKETELYIEKVDGRWILRHIVIK | 1.29 |
| DEQNELLDRLSTILLRLLWTGDEDQWLRLADPDMKLDVGNFKTVGRERVIEIFRAWERHIRVERMHLEDTKLQGDFYFSDYRVDGQINGQRTDTRVIYIFVVVNGRMKSIKVIIE | 1.34 |
| DEQQEDAEHATELLLRLLETGDWSTFEKLMDPHVRVDIGDKHLHGREMSSHFIKELVERYPNLRISFKDMRVQGEFIHVIGEVNFNGQRFHSEWVVLKVDGRWTINSVRIE | 1.28 |
| DEQSRVSEEVIKIWLESVNTGDEKSLSELIDPNVKIHVNGKKMHGWRDAEDHARRIDHMHVEDFKIESIQTQGDFAILHGRLVYSRIVNGVELHSDEHVEMVILKYNGRWSIEEVRVR | 1.27 |
| DEQTELEDKMRELIMRTWDTGDEKLLQELADPDARAHFNINGQTDSRHGREEILRLFIKLWEILGVDHLHLQHVSVIDGKFHIHQEVRYDGKVTFLHIHVWIVNGRNRQFNVHIEHR | 0.407 |
| DERDEAEKVLMKILLDNHHTGDEESLERLIDPNAKIIYGDKDYVGWELMIEWVRHARVHRVEIKDSRVQGDKVNLDGHEDGNINGKRRRTNVIVYLLKINGRWFFHSIQID | 2.17 |
| DERDEEAHRMTETFYELQRTGDEESTHHLADPHVKFEYLIGDKYFEIHGWDRVLEFWLRYKGVREEIDHRRVRVINGKIHIELIVKIRIGDKTHVHRIELNIEKVDGRWILREVRVEVK | 1 |
| DERDEETRRAIEWWVEVLKTGNFKDIKELADPNARVHQGDKHFHGMDHFLDFLERLGIDHVQINHIHYFDGKIEIDHHVRIGDKETRVIFISDKIDGRWRITEVQFH | 1.13 |
| DERDEHAHHFFELLLKMWETGDEHELIKFFDPDPRFIYNGKELHGREIAEEFIKEWRVHDMRVKRINVQGEKVIFDGIMDGEFNGKRIFIETHIYMTKVNGKWRTKFIEFN | 1.42 |
